Reference: publication PMC2705282 (Journal of molecular biology, 2009)
Positions count from the first letter of the chain named. In names and notes the source's numbering stands.

B1: wild-type URO-D module of single-chain URO-D (enzyme, human)
chain: MEANGLGPQGFPELKNDTFLRAAWGEETDYTPVWCMRQAGRYLPEFRETRAAQDFFSTCRSPEACCELTLQPLRRFPLDAAIIFSDILVVPQALGMEVTMVPGKGPSFPEPLREEQDLERLRDPEVVASELGYVFQAITLTRQRLAGRVPLIGFAGAPWTLMTYMVEGGGSSTMAQAKRWLYQRPQASHQLLRILTDALVPYLVGQVVAGAQALQLFESHAGHLGPQLFNKFALPYIRDVAKQVKARLREAGLAPVPMIIFAKDGHFALEELAQAGYEVVGLDWTVAPKKARECVGKTVTLQGNLDPCALYASEEEIGQLVKQMLDDFGPHRYIANLGHGLYPDMDPEHVGAFVDAVHKHSRLLRQN
B2: Y164G URO-D module of single-chain URO-D (enzyme, human)
chain: B1 chain with Y164G
B3: F217Y URO-D module of single-chain URO-D (enzyme, human)
chain: B1 chain with F217Y

Experiments:
[1] = target: B3; assay: crystal structure
[2] = target: B1; assay: crystal structure

Binder | binding result [1] | binding result [2]
B1 | binds | 
B2 |  | binds
B3 |  | binds
